Tests used:
Settings in all cases: tags: C-terminal GS linker-SV40 NLS
Int12 = biological target: T1, Int12 (Staphylococcus lugdunensis N920143); assay: cell_activity; attB x attP EGFP inversion reporter, HEK293FT
T1 chain: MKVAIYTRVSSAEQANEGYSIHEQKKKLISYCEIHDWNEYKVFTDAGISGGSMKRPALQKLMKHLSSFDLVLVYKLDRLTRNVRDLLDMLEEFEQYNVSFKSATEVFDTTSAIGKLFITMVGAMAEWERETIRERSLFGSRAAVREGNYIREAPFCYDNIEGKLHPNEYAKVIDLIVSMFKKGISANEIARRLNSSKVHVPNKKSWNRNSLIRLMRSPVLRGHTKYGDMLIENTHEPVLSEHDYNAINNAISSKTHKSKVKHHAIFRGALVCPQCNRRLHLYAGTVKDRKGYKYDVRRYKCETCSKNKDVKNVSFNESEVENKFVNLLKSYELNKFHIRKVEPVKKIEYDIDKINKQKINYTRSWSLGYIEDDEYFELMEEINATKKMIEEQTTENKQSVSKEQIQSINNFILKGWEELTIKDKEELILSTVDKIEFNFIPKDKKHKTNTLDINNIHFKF

Int3 = biological target: T2, Int3 (Streptococcus pyogenes M1 GAS (phage …)); assay: cell_activity
T2 chain: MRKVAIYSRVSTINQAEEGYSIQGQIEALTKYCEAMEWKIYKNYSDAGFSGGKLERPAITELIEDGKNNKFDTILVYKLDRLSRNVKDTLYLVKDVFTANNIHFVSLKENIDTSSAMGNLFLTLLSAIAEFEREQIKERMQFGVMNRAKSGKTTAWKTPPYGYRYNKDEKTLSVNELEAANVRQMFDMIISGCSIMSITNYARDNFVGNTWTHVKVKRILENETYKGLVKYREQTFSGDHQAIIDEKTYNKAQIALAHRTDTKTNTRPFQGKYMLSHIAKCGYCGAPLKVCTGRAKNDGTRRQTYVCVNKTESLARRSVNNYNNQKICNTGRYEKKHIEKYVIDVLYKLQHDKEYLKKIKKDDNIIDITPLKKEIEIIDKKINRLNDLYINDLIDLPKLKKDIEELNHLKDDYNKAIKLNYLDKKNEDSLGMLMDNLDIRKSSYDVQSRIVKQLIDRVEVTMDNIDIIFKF

Int13 = biological target: T3, Int13 (Bacillus cytotoxicus NVH 391-98); assay: cell_activity; attB x attP EGFP inversion reporter, HEK293FT
T3 chain: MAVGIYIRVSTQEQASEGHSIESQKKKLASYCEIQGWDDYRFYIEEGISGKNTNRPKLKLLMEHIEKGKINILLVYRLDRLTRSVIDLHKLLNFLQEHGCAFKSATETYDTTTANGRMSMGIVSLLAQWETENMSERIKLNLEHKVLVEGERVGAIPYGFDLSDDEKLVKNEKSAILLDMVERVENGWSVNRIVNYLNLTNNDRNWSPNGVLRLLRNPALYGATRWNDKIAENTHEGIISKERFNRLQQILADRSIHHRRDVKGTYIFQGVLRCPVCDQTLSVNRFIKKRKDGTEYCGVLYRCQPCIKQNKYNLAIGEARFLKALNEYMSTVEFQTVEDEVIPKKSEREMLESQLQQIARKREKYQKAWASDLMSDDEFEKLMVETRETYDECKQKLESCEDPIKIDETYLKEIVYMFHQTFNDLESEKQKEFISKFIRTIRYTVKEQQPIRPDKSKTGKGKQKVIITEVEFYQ

Int14 = biological target: T4, Int14 (Listeria innocua Clip11262); assay: as above
T4 chain: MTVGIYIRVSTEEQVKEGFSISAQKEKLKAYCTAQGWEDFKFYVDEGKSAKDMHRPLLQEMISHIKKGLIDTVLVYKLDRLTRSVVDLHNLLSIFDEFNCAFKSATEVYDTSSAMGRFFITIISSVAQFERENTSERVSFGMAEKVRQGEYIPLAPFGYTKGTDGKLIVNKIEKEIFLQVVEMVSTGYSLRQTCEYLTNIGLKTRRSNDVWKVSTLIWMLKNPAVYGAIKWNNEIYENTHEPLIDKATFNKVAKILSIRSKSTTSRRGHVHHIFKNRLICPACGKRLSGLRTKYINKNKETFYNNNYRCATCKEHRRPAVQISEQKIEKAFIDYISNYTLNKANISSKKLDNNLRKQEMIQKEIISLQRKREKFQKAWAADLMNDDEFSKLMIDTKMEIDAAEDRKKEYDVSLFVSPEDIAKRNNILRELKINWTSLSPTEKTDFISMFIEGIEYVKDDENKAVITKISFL

Int15 = biological target: T5, Int15 (Listeria monocytogenes SLCC2372 (phage …)); assay: cell_activity
T5 chain: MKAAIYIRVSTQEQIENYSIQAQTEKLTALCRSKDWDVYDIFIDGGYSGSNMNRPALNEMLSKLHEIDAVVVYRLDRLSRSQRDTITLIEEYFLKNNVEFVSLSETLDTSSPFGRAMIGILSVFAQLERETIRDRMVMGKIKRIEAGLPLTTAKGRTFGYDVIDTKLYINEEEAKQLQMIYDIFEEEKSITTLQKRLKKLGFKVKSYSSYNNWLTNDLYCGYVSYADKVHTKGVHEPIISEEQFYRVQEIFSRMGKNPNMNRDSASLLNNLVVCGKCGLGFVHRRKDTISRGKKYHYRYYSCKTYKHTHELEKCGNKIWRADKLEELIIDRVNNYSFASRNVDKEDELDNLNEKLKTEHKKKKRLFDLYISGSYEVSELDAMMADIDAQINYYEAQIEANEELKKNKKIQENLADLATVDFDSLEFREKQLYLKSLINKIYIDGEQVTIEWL

Int16 = biological target: T6, Int16 (Enterococcus faecalis D32); assay: cell_activity
T6 chain: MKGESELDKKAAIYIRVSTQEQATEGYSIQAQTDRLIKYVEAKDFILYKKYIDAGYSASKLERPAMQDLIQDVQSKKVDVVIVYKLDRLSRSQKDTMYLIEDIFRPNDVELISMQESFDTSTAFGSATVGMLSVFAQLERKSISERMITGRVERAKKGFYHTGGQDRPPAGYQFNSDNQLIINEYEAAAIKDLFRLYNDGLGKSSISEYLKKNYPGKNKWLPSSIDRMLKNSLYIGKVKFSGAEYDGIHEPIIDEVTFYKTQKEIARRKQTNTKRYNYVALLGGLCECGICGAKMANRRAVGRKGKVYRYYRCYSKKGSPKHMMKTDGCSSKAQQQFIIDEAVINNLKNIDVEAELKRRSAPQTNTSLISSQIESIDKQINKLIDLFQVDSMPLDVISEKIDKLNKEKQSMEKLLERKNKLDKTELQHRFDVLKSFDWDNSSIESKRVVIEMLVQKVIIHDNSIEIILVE

Int18 = biological target: T7, Int18 (Streptococcus pneumoniae JJA); assay: cell_activity
T7 chain: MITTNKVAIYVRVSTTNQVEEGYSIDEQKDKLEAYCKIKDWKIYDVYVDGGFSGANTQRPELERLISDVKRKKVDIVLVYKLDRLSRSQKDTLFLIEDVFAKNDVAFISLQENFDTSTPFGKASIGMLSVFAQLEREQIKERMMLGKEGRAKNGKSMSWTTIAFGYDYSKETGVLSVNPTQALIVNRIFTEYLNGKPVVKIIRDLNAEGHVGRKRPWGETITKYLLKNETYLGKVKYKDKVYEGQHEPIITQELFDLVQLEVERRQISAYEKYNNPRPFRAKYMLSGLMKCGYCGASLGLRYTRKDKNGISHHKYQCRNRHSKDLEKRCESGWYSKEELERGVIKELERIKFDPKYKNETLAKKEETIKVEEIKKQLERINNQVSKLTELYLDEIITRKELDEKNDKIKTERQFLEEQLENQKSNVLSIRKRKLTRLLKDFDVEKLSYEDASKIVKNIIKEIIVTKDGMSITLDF

B1: Int12 attB (dsDNA)
DNA 1: GTTCGTGGTAACTATGGGTGGTACAGGTGCCACATTAGTTGTACCATTTATGTTTATGTGGTTAAC
DNA 2: GTTAACCACATAAACATAAATGGTACAACTAATGTGGCACCTGTACCACCCATAGTTACCACGAAC
- binding signal (Int12): 0.821 fraction of Bxb1

B2: Int12 attP (dsDNA)
DNA 1: TTTTTGTATGTTAGTTGTGTCACTGGGTAGACCTAAATAGTGACACAACTGCTATTAAAATTTAA
DNA 2: TTAAATTTTAATAGCAGTTGTGTCACTATTTAGGTCTACCCAGTGACACAACTAACATACAAAAA
- binding signal (Int12): 0.821 fraction of Bxb1

B3: Int3 attB (dsDNA)
DNA 1: GTTTGTAAAGGAGACTGATAATGGCATGTACAACTATACTCGTCGGTAAAAAGGCATCTTAT
DNA 2: ATAAGATGCCTTTTTACCGACGAGTATAGTTGTACATGCCATTATCAGTCTCCTTTACAAAC
- binding signal (Int3): 1.11 fraction of Bxb1

B4: Int13 attB (dsDNA)
DNA 1: CGCATACATTGTTGTTGTTTTTCCAGATCCAGTTGGTCCTGTAAATATAAGCAATCCATGTGAGT
DNA 2: ACTCACATGGATTGCTTATATTTACAGGACCAACTGGATCTGGAAAAACAACAACAATGTATGCG
- binding signal (Int13): 0.295 fraction of Bxb1

B5: Int13 attP (dsDNA)
DNA 1: CAATAACGGTTGTATTTGTAGAACTTGACCAGTTGTTTTAGTAACATAAATACAACTCCGAATA
DNA 2: TATTCGGAGTTGTATTTATGTTACTAAAACAACTGGTCAAGTTCTACAAATACAACCGTTATTG
- binding signal (Int13): 0.295 fraction of Bxb1

B6: Int14 attB (dsDNA)
DNA 1: TTATTGCAAGAAAAATGGGTTATAAGTACACATCAGGTTATAGTAATATCGAAAAAGGAAGC
DNA 2: GCTTCCTTTTTCGATATTACTATAACCTGATGTGTACTTATAACCCATTTTTCTTGCAATAA
- binding signal (Int14): 0.248 fraction of Bxb1

B7: Int14 attP (dsDNA)
DNA 1: TTATATAAAATAGTGTTTTTGTAAAGTACACATCACCATATTTGACAAAAAACCTATAAATA
DNA 2: TATTTATAGGTTTTTTGTCAAATATGGTGATGTGTACTTTACAAAAACACTATTTTATATAA
- binding signal (Int14): 0.248 fraction of Bxb1

B8: Int15 attB (dsDNA)
DNA 1: CTGTAACTTTTTCGGATCAAGCTATGAGGGACGCAAAGAGGGAACTAAACACTTAATTGGTG
DNA 2: CACCAATTAAGTGTTTAGTTCCCTCTTTGCGTCCCTCATAGCTTGATCCGAAAAAGTTACAG
- binding signal (Int15): 1.86 fraction of Bxb1

B9: Int15 attP (dsDNA)
DNA 1: TTGTTTAGTCCCTCGTTTTCTCTCGTTGGACGGAGACGAATCGAGAAACTAAAATTATAAAT
DNA 2: ATTTATAATTTTAGTTTCTCGATTCGTCTCCGTCCAACGAGAGAAAACGAGGGACTAAACAA
- binding signal (Int15): 1.86 fraction of Bxb1

B10: Int16 attB (dsDNA)
DNA 1: TTCTGGACCATGATGCGCCACTTCCGAAATTTCAAAAAGATCAGTGGTCAAACGGCTCATTA
DNA 2: TAATGAGCCGTTTGACCACTGATCTTTTTGAAATTTCGGAAGTGGCGCATCATGGTCCAGAA
- binding signal (Int16): 0.21 fraction of Bxb1

B11: Int16 attP (dsDNA)
DNA 1: GTATCTTGATGTACAACATTACTCTTTATTTTCAAATACAGAATAATGTTGCATATAATATT
DNA 2: AATATTATATGCAACATTATTCTGTATTTGAAAATAAAGAGTAATGTTGTACATCAAGATAC
- binding signal (Int16): 0.21 fraction of Bxb1

B12: Int3 attP (dsDNA)
DNA 1: ATGGATAAAAAAATACAGCGTTTTTCATGTACAACTATACTAGTTGTAGTGCCTAAATAATGCTT
DNA 2: AAGCATTATTTAGGCACTACAACTAGTATAGTTGTACATGAAAAACGCTGTATTTTTTTATCCAT
- binding signal (Int3): 1.11 fraction of Bxb1

B13: Int18 attB (dsDNA)
DNA 1: TCTGGTGTAGACGTTAAACGTCCAATCAAGATAACTTTATTATACATATTTTCTTCCTCCTA
DNA 2: TAGGAGGAAGAAAATATGTATAATAAAGTTATCTTGATTGGACGTTTAACGTCTACACCAGA
- binding signal (Int18): 1.76 fraction of Bxb1

B14: Int18 attP (dsDNA)
DNA 1: TATTTCTGTATTTTAGTCAAAGTAATTAAGATAAGTTAGAGTTAGTAACAGTATTTTAACTT
DNA 2: AAGTTAAAATACTGTTACTAACTCTAACTTATCTTAATTACTTTGACTAAAATACAGAAATA
- binding signal (Int18): 1.76 fraction of Bxb1

From patent US20240409906, “INTEGRASES, LANDING PAD ARCHITECTURES, AND ENGINEERED CELLS COMPRISING THE SAME” (Asimov Inc., published 2024)
